Experimental data published in publication PMC5389638 (Nucleic Acids Research, 2016).

Biological target: the molecule itself
Assay: AFM volume analysis

B1: 6His–Ver (natural protein, Drosophila, UniProt Q9VTZ2 1-214, looked up)
chain: MDFNQSFEDIESQLDNFVIRKNQQSEKSTGKCGPEVHDNVPLTISQIERATQDPENENVFITDDVHPIHFCTCIIYAFVTGNGTHNESFMKFMIDDGTGSLEASITKKPFNGRVISSLYSEASSLASSEAYKSIAVSMMRLLQVSMEYIDPTRISRGHSLFLRGRPNRFRGKMGLDAFQFFIDSGRSRNMEIGFVDYLTDWQRRHKTMQNTTNK
Question: B1 was tested. Which “stoichiometry N” value did it give?
Answer: 2
